According to article PMC8219831, “Native mass spectrometry analyses of chaperonin complex TRiC/CCT reveal subunit N-terminal processing and re-association patterns” (Scientific Reports, 2021):

B1: human TRiC subunit CCT2 (natural protein, UniProt P78371 2-535, looked up)
chain: ASLSLAPVNIFKAGADEERAETARLTSFIGAIAIGDLVKSTLGPKGMDKILLSSGRDASLMVTNDGATILKNIGVDNPAAKVLVDMSRVQDDEVGDGTTSVTVLAAELLREAESLIAKKIHPQTIIAGWREATKAAREALLSSAVDHGSDEVKFRQDLMNIAGTTLSSKLLTHHKDHFTKLAVEAVLRLKGSGNLEAIHIIKKLGGSLADSYLDEGFLLDKKIGVNQPKRIENAKILIANTGMDTDKIKIFGSRVRVDSTAKVAEIEHAEKEKMKEKVERILKHGINCFINRQLIYNYPEQLFGAAGVMAIEHADFAGVERLALVTGGEIASTFDHPELVKLGSCKLIEEVMIGEDKLIHFSGVALGEACTIVLRGATQQILDEAERSLHDALCVLAQTVKDSRTVYGGGCSEMLMAHAVTQLANRTPGKEAVAMESYAKALRMLPTIIADNAGYDSADLVAQLRAAHSEGNTTAGLDMREGTIGDMAILGITESFQVKRQVLLSAAEAAEVILRVDNIIKAAPRKRVPDHHPC
modifications: N-terminal acetylation
notes: CCT2 subunit of human TRiC; initiator methionine removed (from the measured mass); also called CCTβ; source: Hi5 (Trichoplusia ni) cells, baculovirus pYC35 co-expressing CCT1-8; purified as hTRiC (calmodulin resin, monoQ, SEC); released by RP-HPLC or by 25% DMSO or methanol
B2: human TRiC subunit CCT4 (natural protein, UniProt P50991 2-539, looked up)
chain: PENVAPRSGATAGAAGGRGKGAYQDRDKPAQIRFSNISAAKAVADAIRTSLGPKGMDKMIQDGKGDVTITNDGATILKQMQVLHPAARMLVELSKAQDIEAGDGTTSVVIIAGSLLDSCTKLLQKGIHPTIISESFQKALEKGIEILTDMSRPVELSDRETLLNSATTSLNSKVVSQYSSLLSPMSVNAVMKVIDPATATSVDLRDIKIVKKLGGTIDDCELVEGLVLTQKVSNSGITRVEKAKIGLIQFCLSAPKTDMDNQIVVSDYAQMDRVLREERAYILNLVKQIKKTGCNVLLIQKSILRDALSDLALHFLNKMKIMVIKDIEREDIEFICKTIGTKPVAHIDQFTADMLGSAELAEEVNLNGSGKLLKITGCASPGKTVTIVVRGSNKLVIEEAERSIHDALCVIRCLVKKRALIAGGGAPEIELALRLTEYSRTLSGMESYCVRAFADAMEVIPSTLAENAGLNPISTVTELRNRHAQGEKTAGINVRKGGISNILEELVVQPLLVSVSALTLATETVRSILKIDDVVNTR
notes: CCT4 subunit of human TRiC; initiator methionine removed, proline exposed, not acetylated (from the measured mass); also called CCTδ; source: Hi5 (Trichoplusia ni) cells, baculovirus pYC35 co-expressing CCT1-8; purified as hTRiC (calmodulin resin, monoQ, SEC); released by RP-HPLC or by 25% DMSO or methanol

Key:
[1] = target: human TRiC subunit CCT8 (human) (UniProt P50990); assay: native MS; hTRiC in ammonium acetate pH 7.5 disrupted with 25% (v/v) DMSO, analysed within 30 min; dimers assigned by mass within 12 Da
[2] = target: the molecule itself; assay: intact mass spectrometry of reverse phase fractions (denaturing); RP-HPLC fractions of hTRiC in acetonitrile/TFA elution buffer, 0.1-0.6 μM, nanoelectrospray, QExactive Plus EMR; partially unfolded dimers; dimer masses fitted assuming disulfide formation (-2 Da)

Row | Molecule | percent of all dimer signal [1] [%] | stoichiometry N [2]
1 | human TRiC subunit CCT8 (from UniProt P50990 2-548) (natural protein) | 15 | 
2 | B1 |  | 2
3 | B2 |  | 2
